# Substitutions are numbered along the chain they refer to.
# B1: anti-LRP6 monoclonal antibody 77.2 (antibody, V domains shown)
# VH: QVQLQQSGAELAKPGASVKMSCKASGYTFTSYWMHWVKQRPGQGLEWIGYINPSTGYTEYNQNFRDKATLTADKSSSTANMQLSSLTSEDSAVYYCARTAQYYGSPRGYYAMDSWGQGTSVTVSS
# VL: DIVMTQAAFSNPVTLGTSASISCRSSKSLLHSNGITYLCWFLQKPGQSPQLLIYLMSNLASGVPDRFSSSGSGTDFTLRISRVEAEDVGVYFCAQNLDLPWTFGGGTKLEI
# notes: Murine hybridoma mAb, protein G purified; also called mAb 77.2; VH1/VL1
# B2: anti-LRP6 monoclonal antibody 1433.8 (antibody, V domains shown)
# VH: B1 VH with N63K, A97T
# VL: MTQAAFSNPVTLGTSASISCRSSKSLLHSNGITYLCWFLQKPGQSPQLLIYLMSNLASGVPDRFSSSGSGTDFTLRISRVEAEDVGVYFCAQNLDLPWTFGGGTKLEI
# notes: Murine hybridoma mAb, protein G purified; also called VH21/VL21
# B3: anti-LRP6 monoclonal antibody 1281.1 (antibody, V domains shown)
# VH: B1 VH with M20I, S54N, T58S, N63K, D73N, E89D
# VL: B1 VL with L55Q
# notes: Murine hybridoma mAb, protein G purified; also called VH19/VL19
# B4: anti-LRP6 monoclonal antibody 931.1 (antibody, V domains shown)
# VH: DVNLVESGGGLVKLGGSLKLSCAASGFTFSSFYMSWVRQTPEKRLDLVATINTNGGSTYYSDTVKGRFTISRDNAKNTLYLQMNSLKSEDTALFYCVRQPYYGGTMDYWGQGTSVTVSS
# VL: DIVLTQSPATLSVTPGDRVSLSCRASQSINNNLHWYQQKSHESPRLLIKYASQSISGIPSRFSGSGSGTDFTLSINSVETEDFGMYFCQQTNNWPLTFGAGTKLEL
# notes: Murine hybridoma mAb, protein G purified; also called VH13/VL13
# B5: anti-LRP6 monoclonal antibody 1115.3 (antibody, V domains shown)
# VH: DVKLVESGGGLVKLGGSLRLSCAASGFSFSTSYMSWVRQTPEKRLELVAAINLNGGSTYYSDTVKGRFTISRDNAKNTLYLQMSSLKSEDTAFYYCASELAGYGTPFAYWGQGTLVTVSA
# VL: B4 VL with R18S, R24K, N30S, A51T, S74T, S77N, T91S, N93S, L106V
# notes: Murine hybridoma mAb, protein G purified; also called VH16/VL16
# B6: anti-LRP6 monoclonal antibody 240.8 (antibody, V domains shown)
# VH: B5 VH with R19K, S28T, T31S, S32Y, L53S, S61A, V64M, S84I, Q112H
# VL: B4 VL with S7F, R18S, N30S, N31S, K39T, S65T, T91S, N93T
# notes: Murine hybridoma mAb, protein G purified; also called VH4/VL4
# B7: anti-LRP6 monoclonal antibody 213.7 (antibody, V domains shown)
# VH: DVKLVESGGGLVKVGGSLKLSCAASGFTFSSYYMSWVRQTPEKRLELVAVINTNGGSTYYSDTVKGRFTISRDNAKNTLYLQMSSLKSEDTALYYCSRQPYYGNPFDYWGQGTTLTVSS
# VL: B4 VL with R18S, N30S, A51V, T91S
# notes: Murine hybridoma mAb, protein G purified; also called VH3/VL3
# B8: anti-LRP6 monoclonal antibody 1213.2 (antibody, V domains shown)
# VH: B4 VH
# VL: B4 VL
# notes: Murine hybridoma mAb, protein G purified; also called VH17/VL17
# B9: anti-LRP6 monoclonal antibody 498.3 (antibody, V domains shown)
# VH: DVKLVESGGGLVRLGGSLKLSCAASGFTFSTYYMSWVRQTPEKRLELVATINTNGGSTYYPDTLKGRFTISRDNAKNTLYLQMSSLRSEDTALYYCARQRNYGVAVDSWGQGTSVTVSS
# VL: B4 VL with R18S, N30S, L106R
# notes: Murine hybridoma mAb, protein G purified; also called VH7/VL7
# B10: anti-LRP6 monoclonal antibody 923.3 (antibody, V domains shown)
# VH: B5 VH with L14V, R19K, S28T, T31S, S32Y, L53I, S61P
# VL: B4 VL with R18S, N30S, T91S
# notes: Murine hybridoma mAb, protein G purified; also called VH12/VL12
# B11: anti-LRP6 monoclonal antibody 606.4 (antibody, V domains shown)
# VH: B7 VH with T53S, D62E
# VL: B4 VL with R18S, N30S, A51V, T91S
# notes: Murine hybridoma mAb, protein G purified; also called VH9/VL9
# B12: anti-LRP6 monoclonal antibody 413.1 (antibody, V domains shown)
# VH: EIQLQQSGPELVKPGASVKVSCKASGYAFTSYNMYWVKQSHGKGLEWIGYIDPYNGGTDSNQNFKGKATLTVDKSSSTAFMHLNSLTSEDSAVYYCARGGMGLRRDHFDYWGQGTSLTVSS
# VL: QIVLTQSPAIMSASPGEKVTISCSANSSVRYMFWYQQKPGSFPKPWTYRTSNLASGVPARFSGSGSGTSYSLTISSMEAEDVATYYCQQYHSYPWTFGGGTKLEI
# notes: Murine hybridoma mAb, protein G purified; also called VH5/VL5
# B13: anti-LRP6 monoclonal antibody 421.1 (antibody, V domains shown)
# VH: QVQLQQSGPELVKPGASVRISCKASGYTFTTYYIHWLKQRPGQGLEWIGWIFPGNVNTKYNAKFKGKATLTADKSSSTAYMQLSSLTSEDSAVYFCAREELQYYFDYWGQGSTLTVSS
# VL: B12 VL with Y31F, F42S, W46L, T47I, S64C, V82A
# notes: Murine hybridoma mAb, protein G purified; also called VH6/VL6
# B14: anti-LRP6 monoclonal antibody 537.2 (antibody, V domains shown)
# VH: DVQLQESGPGLVKPSQSLSLTCSVTGYSITSGYYWNWIRQFPGDKLEWMGHINYDGRDNYNPSLKNRISITRDTSKNQFFLKLNSVTTEDTATYYCAREFGNFPYYFDYWGQGTTLTVSS
# VL: B12 VL with N26Y, Y31F, F42S, W46L, T47I, P58S, V82A
# notes: Murine hybridoma mAb, protein G purified; also called VH8/VL8
# B15: anti-LRP6 monoclonal antibody 620.1 (antibody, V domains shown)
# VH: B12 VH with G44S, D59N, S60Y, N63K, F80Y, H107Y, Y110F, S116T
# VL: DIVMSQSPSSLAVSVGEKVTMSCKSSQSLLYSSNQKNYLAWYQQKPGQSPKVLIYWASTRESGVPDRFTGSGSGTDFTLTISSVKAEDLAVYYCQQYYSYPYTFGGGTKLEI
# notes: Murine hybridoma mAb, protein G purified; also called VH10/VL10
# B16: anti-LRP6 monoclonal antibody 856.6 (antibody, V domains shown)
# VH: B13 VH with E100G, S112T
# VL: B12 VL with Y31F, F42S, W46L, T47I, V82A
# notes: Murine hybridoma mAb, protein G purified; also called VH11/VL11
# B17: anti-LRP6 monoclonal antibody 1253.12 (antibody, V domains shown)
# VH: B13 VH with K13M, T31N, I34L, L37V, F52Y, A62E, T69S, E100G, G109A, S112T
# VL: B12 VL with T47I
# notes: Murine hybridoma mAb, protein G purified; also called VH18/VL18
# B18: anti-LRP6 monoclonal antibody 1293.11 (antibody, V domains shown)
# VH: B13 VH with T113A
# VL: B12 VL with Y31F, F42S, W46L, T47I, V82A
# notes: Murine hybridoma mAb, protein G purified; also called VH20/VL20
# Molecular target: T1, Human LRP6-Fc (R&D Systems), recombinant human LRP6 containing the complete extracellular domain (human, UniProt O75581 20-1370)
# T1 construct: Bought protein; also called hLRP6; Fc-antigen; not shown: Fc part of the bought fusion protein
# T1 sequence: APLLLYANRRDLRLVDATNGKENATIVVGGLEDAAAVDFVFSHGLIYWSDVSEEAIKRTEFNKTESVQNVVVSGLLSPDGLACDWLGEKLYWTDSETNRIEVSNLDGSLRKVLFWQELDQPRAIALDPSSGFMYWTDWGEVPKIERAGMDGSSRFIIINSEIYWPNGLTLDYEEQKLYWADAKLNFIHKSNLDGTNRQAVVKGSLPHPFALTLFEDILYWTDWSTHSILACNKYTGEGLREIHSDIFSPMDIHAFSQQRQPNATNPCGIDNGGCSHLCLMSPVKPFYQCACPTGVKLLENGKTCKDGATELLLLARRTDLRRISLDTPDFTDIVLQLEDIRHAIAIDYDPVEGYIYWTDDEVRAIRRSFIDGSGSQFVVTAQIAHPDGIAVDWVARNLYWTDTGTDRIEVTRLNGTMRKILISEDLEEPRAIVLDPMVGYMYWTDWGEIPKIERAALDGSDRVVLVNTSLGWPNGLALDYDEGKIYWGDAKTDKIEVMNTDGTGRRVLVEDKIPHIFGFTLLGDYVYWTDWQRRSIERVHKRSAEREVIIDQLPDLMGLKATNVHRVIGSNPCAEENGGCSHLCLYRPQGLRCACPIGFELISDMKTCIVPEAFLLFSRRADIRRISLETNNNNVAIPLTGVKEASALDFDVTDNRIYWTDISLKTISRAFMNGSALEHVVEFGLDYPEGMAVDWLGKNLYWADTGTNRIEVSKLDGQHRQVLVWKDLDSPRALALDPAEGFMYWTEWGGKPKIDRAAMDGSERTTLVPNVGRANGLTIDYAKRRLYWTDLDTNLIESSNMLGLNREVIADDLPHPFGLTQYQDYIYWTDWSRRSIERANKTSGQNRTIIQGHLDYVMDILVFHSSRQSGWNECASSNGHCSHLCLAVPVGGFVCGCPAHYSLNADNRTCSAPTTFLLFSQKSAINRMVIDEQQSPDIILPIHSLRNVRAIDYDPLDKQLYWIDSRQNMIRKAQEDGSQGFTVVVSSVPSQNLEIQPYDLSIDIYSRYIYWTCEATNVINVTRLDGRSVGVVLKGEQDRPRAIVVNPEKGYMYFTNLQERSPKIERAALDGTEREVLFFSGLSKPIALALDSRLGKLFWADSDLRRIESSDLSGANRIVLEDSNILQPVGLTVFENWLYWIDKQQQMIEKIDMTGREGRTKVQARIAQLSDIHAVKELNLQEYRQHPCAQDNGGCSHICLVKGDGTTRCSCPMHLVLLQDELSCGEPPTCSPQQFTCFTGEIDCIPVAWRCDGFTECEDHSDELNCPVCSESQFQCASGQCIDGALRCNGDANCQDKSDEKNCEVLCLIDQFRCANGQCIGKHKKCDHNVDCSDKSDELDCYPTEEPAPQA
# Assay: SPR (BIAcore), mAb captured on anti-mouse chip, Fc-antigen injected, 1:1 model
# Protocol: Kinetic rate constants (kₐ and kd) were determined using surface plasmon resonance, and affinities (KD) were then calculated from the rate constants (kd/kₐ). Surface plasmon resonance was carried out on a BIAcore system (Biacore International AB, Uppsala, Sweden). Each murine anti-LRP6 mAb sample was diluted 100 fold and captured onto an anti-mouse sensor chip surface. The running buffer contained 10 mM HEPES, 150 mM NaCl, 0.005% Tween-20 and 0.1 mg/ml BSA. Following the capturing step, the Fc-antigen was injected at 45 nM as the highest concentration in a 3-fold dilution series. The association and dissociation phases were monitored for 8 and 60 minutes, respectively. The antigen response data were fit into a 1:1 interaction model.
Binder,Kd [nM],koff [s⁻¹],kon [M⁻¹ s⁻¹]
B1,0.55,3.5e-05,63200
B2,1.68,7.7e-05,45600
B3,1.83,8.3e-05,45500
B4,1.12,6.3e-05,56300
B5,1.45,5.34e-05,36800
B6,6.55,4e-05,6110
B7,1.72,9.6e-05,55600
B8,1.07,6.3e-05,58800
B9,0.98,5e-05,50500
B10,2.33,7.4e-05,31600
B11,1.08,5.7e-05,53200
B12,18,8.47e-05,4700
B13,3.2,0.000114,35400
B14,0.9,3.15e-05,35200
B15,1.73,7.7e-05,44600
B16,0.95,4.5e-05,47400
B17,2.15,7.3e-05,34000
B18,57,0.000124,2200
